Experiments:
[1] = target: T1, human MAdCAM protein (human, UniProt Q13477 19-317); experiment: Octet
T1 construct: used for Octet, SPR, ELISA and plate capture; construct not described; also called recombinant human MAdCAM; soluble monomeric human MAdCAM
T1 sequence (looked up): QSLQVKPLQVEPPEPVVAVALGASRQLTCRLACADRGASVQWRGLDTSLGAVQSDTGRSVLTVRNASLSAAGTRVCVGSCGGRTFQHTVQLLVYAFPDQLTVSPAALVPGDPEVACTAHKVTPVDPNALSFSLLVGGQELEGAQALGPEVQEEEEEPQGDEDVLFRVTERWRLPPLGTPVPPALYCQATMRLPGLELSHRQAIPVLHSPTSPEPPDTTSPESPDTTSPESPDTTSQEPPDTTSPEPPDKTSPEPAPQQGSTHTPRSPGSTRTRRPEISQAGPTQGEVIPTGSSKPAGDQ

[2] = target: T2, human MAdCAM expressed on cells (human, UniProt Q13477 19-382); experiment: cell binding
T2 construct: whole, on cells; also called MADCAM1
T2 sequence (looked up): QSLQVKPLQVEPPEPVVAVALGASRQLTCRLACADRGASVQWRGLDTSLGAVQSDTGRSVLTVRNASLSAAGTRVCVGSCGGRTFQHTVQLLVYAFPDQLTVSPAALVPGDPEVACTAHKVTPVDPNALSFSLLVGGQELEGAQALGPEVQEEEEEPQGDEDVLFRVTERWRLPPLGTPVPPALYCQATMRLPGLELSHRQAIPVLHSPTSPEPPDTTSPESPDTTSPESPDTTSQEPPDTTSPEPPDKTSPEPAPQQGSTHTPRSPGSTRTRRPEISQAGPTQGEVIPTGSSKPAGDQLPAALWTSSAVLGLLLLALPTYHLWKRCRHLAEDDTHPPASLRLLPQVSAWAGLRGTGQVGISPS

[3] = target: T3, mouse MAdCAM expressed on cells (mouse, UniProt Q61826 22-405); experiment: cell binding
T3 construct: whole, on cells
T3 sequence (looked up): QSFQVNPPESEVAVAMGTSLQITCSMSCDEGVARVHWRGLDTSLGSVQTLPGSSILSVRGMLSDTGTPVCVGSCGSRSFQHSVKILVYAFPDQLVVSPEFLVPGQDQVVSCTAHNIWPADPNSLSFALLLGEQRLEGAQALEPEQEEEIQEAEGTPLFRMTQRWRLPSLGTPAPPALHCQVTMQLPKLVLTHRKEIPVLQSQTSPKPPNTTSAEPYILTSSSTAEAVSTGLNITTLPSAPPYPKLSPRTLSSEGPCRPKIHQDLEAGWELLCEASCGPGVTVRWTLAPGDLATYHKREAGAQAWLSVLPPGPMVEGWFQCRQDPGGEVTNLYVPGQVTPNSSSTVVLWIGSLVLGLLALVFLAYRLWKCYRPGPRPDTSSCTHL

[4] = target: T4, mouse MAdCAM protein (mouse, UniProt Q61826 22-365, limits assumed); experiment: Octet
T4 construct: also called recombinant mouse MAdCAM-1; mMAdCAM-1
T4 sequence (looked up): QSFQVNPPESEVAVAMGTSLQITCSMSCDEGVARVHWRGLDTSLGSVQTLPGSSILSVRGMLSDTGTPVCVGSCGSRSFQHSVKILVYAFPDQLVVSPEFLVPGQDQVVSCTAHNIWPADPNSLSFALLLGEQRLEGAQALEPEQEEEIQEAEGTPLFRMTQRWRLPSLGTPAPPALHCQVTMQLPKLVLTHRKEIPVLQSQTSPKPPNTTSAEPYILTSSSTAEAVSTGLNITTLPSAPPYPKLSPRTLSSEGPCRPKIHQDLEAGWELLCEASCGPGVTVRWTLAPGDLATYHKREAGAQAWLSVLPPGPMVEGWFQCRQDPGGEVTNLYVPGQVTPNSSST

B1: MAdCAM antibody Clone ID 58 of Table 7 (IgG) (antibody, V domains shown)
VH: EVQLLESGGGLVQPGGSLRLSCAASGFSVSSNYMSWVRQAPGKGLEWVAGISYDGSSKPYADSVKGRFTISRDNSKNTLYLQMNSLRAEDTAVYYCARSRGIAARPLQHWGQGTLVTVSS
VL: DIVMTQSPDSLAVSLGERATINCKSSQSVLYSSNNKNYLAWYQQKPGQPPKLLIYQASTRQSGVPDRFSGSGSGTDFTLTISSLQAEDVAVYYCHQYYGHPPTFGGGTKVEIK
notes: IgG format
[1]
  binding result: binds
[2]
  binding result: binds
[3]
  binding result: no binding

B2: MAdCAM antibody Clone ID 36 of Table 7 (IgG) (antibody, V domains shown)
VH: EVQLLESGGGLVQPGGSLRLSCAASGFTFDDYALHWVRQAPGKGLEWVSAISGDGRSTTYADSVKGRFTISRDNSKNTLYLQMNSLRAEDTAVYYCARDGTVNGATGWFDPWGQGTLVTVSS
VL: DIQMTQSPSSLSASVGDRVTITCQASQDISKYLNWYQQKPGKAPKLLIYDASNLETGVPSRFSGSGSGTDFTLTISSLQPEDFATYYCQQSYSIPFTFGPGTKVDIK
notes: IgG format
[1]
  binding result: binds
[2]
  binding result: binds
[3]
  binding result: binds

B3: MAdCAM antibody Clone ID 65 of Table 7 (IgG) (antibody, V domains shown)
VH: QVQLVQSGAEVKKPGASVKVSCKASGYTFTSYDINWVRQAPGQGLEWMGWMNPNSGNTGYAQKFQGRVTMTRDTSTSTVYMELSSLRSEDTAVYYCAKDSDYSNLLWDYWGQGTLVTVSS
VL: DIQMTQSPSSLSASVGDRVTITCRASQDITNDLGWYQQKPGKAPKLLIYQASSLESGVPSRFSGSGSGTDFTLTISSLQPEDFATYYCQQSYTIPLTFGQGTKVEIK
notes: IgG format
[4]
  binding result: no binding
[3]
  binding result: no binding

B4: MAdCAM antibody Clone ID 24 of Table 7 (IgG) (antibody, V domains shown)
VH: EVQLVESGGGLVKPGGSLRLSCAASGFTFSSYWMSWVRQAPGKGLEWVSRISSDGRITTYAAPVKGRFTISRDDSKNTLYLQMNSLKTEDTAVYYCARGTSYCTGGVCDIDYWGQGTLVTVSS
VL: DIQMTQSPSSLSASVGDRVTITCRASQSIGRNLNWYQQKPGKAPKLLIYSASNLQSGVPSRFSGSGSGTDFTLTISSLQPEDFATYYCQQSYSIPLTFGPGTKVDIK
notes: IgG format
[4]
  binding result: no binding
[2]
  binding result: binds
[3]
  binding result: no binding

B5: MAdCAM antibody Clone ID 30 of Table 7 (IgG) (antibody, V domains shown)
VH: EVQLLESGGGLVQPGGSLRLSCAASGFTFSSYAMHWVRQAPGKGLEWVSGISGSGGSAYYADSVKGRFTISRDNSKNTLYLQMNSLRAEDTAVYYCATSQAPVDYYYYGMDVWGQGTTVTVSS
VL: DIQMTQSPSSLSASVGDRVTITCRASQSISSWLAWYQQKPGKAPKLLIYAASNLQRGVPSRFSGSGSGTDFTLTISSLQPEDFATYYCQQSYSIPITFGQGTKVEIK
notes: IgG format
[1]
  binding result: binds
[2]
  binding result: binds
[3]
  binding result: binds

B6: MAdCAM antibody Clone ID 14 of Table 7 (IgG) (antibody, V domains shown)
VH: QVQLVQSGAEVKKPGSSVKVSCKASGYTFTNYYMHWVRQAPGQGLEWMGGIIPIVDGVKYAQKFQGRVTITADESTSTAYMELSSLRSEDTAVYYCAKGQFTGNYYYGMDYWGQGTLVTVSS
VL: DIQMTQSPSSLSASVGDRVTITCQANQDISNYLNWYQQKPGKAPKLLIYRASKLEAGVPSRFSGSGSGTDFTLTISSLQPEDFATYYCQQSSEIPYSFGQGTKVEIK
notes: IgG format
[4]
  binding result: no binding
[3]
  binding result: no binding

B7: MAdCAM antibody Clone ID 28 of Table 7 (IgG) (antibody, V domains shown)
VH: EVQLLESGGGLVQPGGSLRLSCAASGFTFSSYAMSWVRQAPGKGLEWVSYISSSSTYTNYADSVKGRFTISRDNSKNTLYLQMNSLRAEDTAVYYCARANSSSWYDWYFDLWGQGTLVTVSS
VL: not shown
notes: IgG format
[4]
  binding result: no binding
[3]
  binding result: no binding

B8: MAdCAM antibody Clone ID 29 of Table 7 (IgG) (antibody, V domains shown)
VH: EVQLLESGGGLVQPGGSLRLSCAASGFTFSSYQMSWVRQAPGKGLEWVSYISSSSTYTNYADSVKGRFTISRDNSKNTLYLQMNSLRAEDTAVYYCARANSSSWYDWYFDLWGQGTLVTVSS
VL: not shown
notes: IgG format
[4]
  binding result: no binding
[3]
  binding result: no binding

B9: MAdCAM antibody Clone ID 74 of Table 7 (IgG) (antibody, V domains shown)
VH: QVQLVQSGAEVKKPGASVKVSCKASGYTFTGYYMHWVRQAPGQGLEWMGIINPSGGNTKYAQKFQGRVTMTRDTSTSTVYMELSSLRSEDTAVYYCTTADYYYYMDVWGKGTTVTVSS
VL: DIQMTQSPSSLSASVGDRVTITCRASQGISNYLAWYQQKPGKAPKLLIYAASSLQSGVPSRFSGSGSGTDFTLTISSLQPEDFATYYCQQYYSNADFGQGTKVEIK
notes: IgG format
[4]
  binding result: no binding
[3]
  binding result: no binding

Reference: patent US20200392228A1 (PANDION OPERATIONS, published 2020)
